Measured values reported in the supplement of paper PMC7877785.
± gives the uncertainty stated by the source.

Test: self-splicing fitness, log relative to wild type (ln ratio); higher = more splicing; Tetrahymena group I intron in knt gene, E. coli kanamycin selection, DiMSum; sequences stand for … in CUCUCU…GGAGGGAAAAGUUAUCAGGCAUGCACCUGGUAGCUAGUCUUUAAACCAAUAGAUUGCAUCGGUUUAAAAGGCAAGACCGUCAAAUUGCGGGAAAGGGGUCAACAGCCGUUCAGUACCAAGUCUCAGGGGAAACUUUGAGAUGGCCUUGCAAAGGGUAUGGUAAUAAGCUGACGGACAUGGUCCUAACCACGCAGCCAAGUCCUAAGUCAACAGAUCUUCUGUUGAUAUGGAUGCAGUUCACAGACUAAAUGUCGGUCGGGGAAGAUGUAUUCUUCUCAUAAGAUAUAGUCGGACCUCUCCUUAAUGGGAGCUAGCGGAUGAAGUGAUGCAACACUGGAGCCGCUGGGAACUAAUUUGUAUGCGAAAGUAUAUUGAUUAGUUUUGGAGUACUCGUGGUCG
Outline: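 Pooled colonies went to amplicon sequencing on an Illumina HiSeq 2500 after six replicate transformations. The plates were LB agar with 100 μg/mL carbenicillin, 50 μM IPTG and 0.2% rhamnose, with or without 25 μg/mL kanamycin, incubated overnight at 37°C or 30°C. The E. coli BL21(DE3) library had all eight P1ex-region intron nucleotides randomised, the intron placed in the knt kanamycin-resistance gene on pET-22b(+). DiMSum fitness is the error-weighted combination of replicate fold changes, kanamycin against none, normalised to wild type.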

Sequence | self-splicing fitness (ln) (30 °C) | self-splicing fitness (ln) (37 °C)
GAAGAGCAAUAUUACGCAUA | -3.1 ± 0.19 | -2.62 ± 0.22
CAAUAGCAAUAUUACGUCUC | -2.8 ± 0.18 | -3.4 ± 0.33
GUGUAGCAAUAUUACGAUAU | -0.699 ± 0.17 | -0.881 ± 0.21
GAAUAGCAAUAUUACGUUUU | -3.38 ± 0.16 | -0.859 ± 0.11
GAUAAGCAAUAUUACGUUCA | -0.732 ± 0.093 | -0.316 ± 0.12
CCUUAGCAAUAUUACGGCGC | -2.98 ± 0.27 | 
UCCAAGCAAUAUUACGCCAG |  | -1.9 ± 0.28
CAGCAGCAAUAUUACGCCAG | -0.865 ± 0.089 | 0.0215 ± 0.12
GGGAAGCAAUAUUACGACGU | -0.169 ± 0.15 | 0.767 ± 0.17
UAUCAGCAAUAUUACGCCCU | -0.754 ± 0.11 | -0.333 ± 0.14
GCCAAGCAAUAUUACGGUGC | -3.11 ± 0.24 | -2.14 ± 0.21
ACCAAGCAAUAUUACGCUAU | -1.66 ± 0.087 | -0.775 ± 0.098
UUCCAGCAAUAUUACGGAGG | -3.51 ± 0.17 | -1.03 ± 0.1
UCUUAGCAAUAUUACGGGUU | -2.2 ± 0.15 | -1.61 ± 0.18
GACCAGCAAUAUUACGCGGA | -1.06 ± 0.1 | -0.442 ± 0.1
CUAGAGCAAUAUUACGAGGU | -3.26 ± 0.16 | -3.24 ± 0.3
GAAAAGCAAUAUUACGUGAA | -1.56 ± 0.065 | -1.33 ± 0.085
AAUAAGCAAUAUUACGCUGA | -1.81 ± 0.17 | -1.63 ± 0.18
GUGAAGCAAUAUUACGACGU | 0.815 ± 0.1 | 0.675 ± 0.1
UCGUAGCAAUAUUACGUUUG | -3.19 ± 0.18 | -1.56 ± 0.2
GGCAAGCAAUAUUACGGCUU | -0.985 ± 0.074 | 0.644 ± 0.12

Sequence | self-splicing fitness (ln) (30 °C) | self-splicing fitness (ln) (37 °C)
CUUAAGCAAUAUUACGCUAU | -1.59 ± 0.32 | -1.8 ± 0.33
UGAGAGCAAUAUUACGGUAC |  | -2 ± 0.38
GCGAAGCAAUAUUACGCCGG | -1.91 ± 0.47 | -0.944 ± 0.47
GCGCAGCAAUAUUACGUCGC | -2.27 ± 0.14 | -2.2 ± 0.27
AUAAAGCAAUAUUACGUCUG | -0.676 ± 0.079 | -0.47 ± 0.11
UUCUAGCAAUAUUACGGUGA | -0.462 ± 0.086 | -0.28 ± 0.11
AGGCAGCAAUAUUACGCUAU | -1.45 ± 0.088 | -0.464 ± 0.092
AUUAAGCAAUAUUACGAAUA | -1.29 ± 0.21 | -0.938 ± 0.21
CAGAAGCAAUAUUACGCCCA | -1.97 ± 0.15 | -0.986 ± 0.16
UAUAAGCAAUAUUACGCGGU | -3.64 ± 0.26 | -3.54 ± 0.34
UGAGAGCAAUAUUACGCGGC | -3.04 ± 0.46 | -1.58 ± 0.44
CUGUAGCAAUAUUACGUUGA | -2.93 ± 0.2 | -2.43 ± 0.2
UGUUAGCAAUAUUACGCUCA | 0.179 ± 0.19 | -0.292 ± 0.18
GAAAAGCAAUAUUACGCAGU | -3.38 ± 0.18 | -1.69 ± 0.15
GACGAGCAAUAUUACGCCCA | -2.06 ± 0.3 | -2.17 ± 0.28
GAACAGCAAUAUUACGUGAU | -0.746 ± 0.058 | -0.432 ± 0.075
GGGCAGCAAUAUUACGUUGU | -2.7 ± 0.16 | -2.77 ± 0.19
GAAUAGCAAUAUUACGACUG | 0.089 ± 0.15 | -1.43 ± 0.17
AGCGAGCAAUAUUACGGCAA | -1.93 ± 0.13 | -1.71 ± 0.15
UAUCAGCAAUAUUACGUUUA | -0.174 ± 0.055 | -0.0219 ± 0.069
CCAAAGCAAUAUUACGGUAA | -3.35 ± 0.29 | -2.91 ± 0.23

Sequence | self-splicing fitness (ln) (30 °C) | self-splicing fitness (ln) (37 °C)
AAUCAGCAAUAUUACGUCAA | -0.952 ± 0.077 | -0.614 ± 0.1
CCCUAGCAAUAUUACGAAGA | -2.34 ± 0.21 | -2.67 ± 0.26
UGCAAGCAAUAUUACGGGAG | -2.41 ± 0.096 | -1.71 ± 0.098
CGGAAGCAAUAUUACGCCAC | -3.64 ± 0.18 | -2.78 ± 0.26
GCCCAGCAAUAUUACGACCA | -1.44 ± 0.19 | -0.385 ± 0.23
GUCUAGCAAUAUUACGACUG | -2.39 ± 0.23 | -2.73 ± 0.31
CAUAAGCAAUAUUACGGAGA |  | -3.12 ± 0.38
CGAAAGCAAUAUUACGAUCU | -0.599 ± 0.076 | 0.313 ± 0.11
UCACAGCAAUAUUACGGGCG | -0.948 ± 0.094 | -1.07 ± 0.093
GGCUAGCAAUAUUACGGAAU | -0.705 ± 0.072 | -0.0885 ± 0.1
CAGUAGCAAUAUUACGUCAA | -2.64 ± 0.14 | -2.59 ± 0.26
GACUAGCAAUAUUACGCUAC | -1.81 ± 0.16 | -1.33 ± 0.2
GCGAAGCAAUAUUACGGACA | -0.834 ± 0.13 | -0.85 ± 0.13
CAAGAGCAAUAUUACGUAGC |  | -1.86 ± 0.43
AGCAAGCAAUAUUACGAUAA | -2.16 ± 0.12 | 0.308 ± 0.11
GCUGAGCAAUAUUACGUCUG | -2.08 ± 0.14 | -0.981 ± 0.14
UUUGAGCAAUAUUACGGAAA | -2.01 ± 0.21 | -1.95 ± 0.24
CAGAAGCAAUAUUACGGGCA | -2.53 ± 0.16 | -1.76 ± 0.18
CCUCAGCAAUAUUACGAGCG | -2 ± 0.094 | -1.05 ± 0.088
